Laboratory results from patent US20250325718A1 (Janssen / Centocor, published 2025).

B1: KL2B413 (scFv-LH-Fc) (Fc fusion)
scFv: EIVLTQSPSFLSASVGDRVTITCRASQGISSYLSWYQQKPGKAPKLLIYATSTLQSGVPSRFSGSGSGTEFTLTISSLQPEDFATYYCQQLNSYPRTFGQGTKVEIKGGSEGKSSGSGSESKSTGGSEVQLVESGGGLVQPGGSLRLSCAASGFTFSSYWMTWVRQAPGKGLEWVANIKQDGSERYYVDSVKGRFTISRDNAKNSLYLQMNSLRAEDTAVYYCARDQNYDILTGHYGMDVWGQGTTVTVSS
notes: scFv (VL-linker-VH) fused to an Fc; also called scFv18; KL2B413_LH; not shown: The hinge and Fc of the scFv-LH-Fc
B2: KL2B242 (Fab) (Fab, V domains shown)
VH: QVQLQESGPGLVKPSETLSLTCTVSGGSISSYYWSWLRQPAGSGLEWIGRLYVSGFTNYNPSLKSRVTLSLDPSRNQLSLKLSSVTAADTAVYYCAGDSGNYWGWFDPWGQGTLVTVSS
VL: SYELTQPPSVSVSPGETASITCSGDQLGENYACWYQQKPGQSPVLVIYQDSKRPSGIPERFSGSNSGNTATLTISGTQALDEADYYCQAWDNSIVVFGGGTKLTVL
B3: KL2B53 (Fab) (Fab, V domains shown)
VH: EVQLVESGGGVVQPGRSLRLSCVASGFTFSSYDIHWVRQAPGKGLEWVAIISYDGSKKDYTDSVKGRFTISRDNSKNTLYLQMDSLRVEDSAVYSCARESGWSHYYYYGMDVWGQGTMVTVSS
VL: DIVMTQSPSSLSASVGDRVTITCRASQDISNYLAWYQQKPGKVPKFLIYAASTLHSGVPSRFSGSGSGTDFTLTISSLQPEDVATYYCQKYNSAPYTFGQGTRLEIK
B4: KL2B467 (Fab) (Fab, V domains shown)
VH: QVQLVESGGGVVQPGRSLRLSCAASGFTFSYYGMHWVRQAPGKGLEWVAFISYDGSNKYYADSVKGRFTISRDNSKNTLYLQMNSLRAEDTAVYYCAHLPYSGSYWAFDYWGQGTQVTVSS
VL: QSVLTQPPSVSVAPGQTASITCGGDNIGSKSVHWYQQKPGQAPVLVVYDNSDRPSGIPERFSGSNSGTTATLTISRVEAGDEADYYCQVWDSSSDHPVVFGGGTKVTV
B5: KL2B494 (Fab) (Fab, V domains shown)
VH: QVQLVESGGGLVQPGGSLRLSCAASGFTFSHYAMSWVRQAPGKGLEWVSTIGGSGGSTYYADSVKGRFTISRDNSKNTLYLQMNSLRAEDTAVYYCAKPHIVMVTALLYDGMDVWGQGTMVTVSS
VL: SSELTQPPSVSVAPGQTARITCGGNNIGSKSVHWYQQKPGQAPVLVVYDDSDRPSGIPERFSGSNSGNTATLTISRVEAGDEADYYCQVWDSSSDHVVFGGGTKLTVL
B6: KL2B359 (scFv-LH-Fc) (Fc fusion)
scFv: EIVLTQSPATLSLSPGERATLSCRASESVEYFGTSLMHWYQQKPGQPPRLLIYAASNVESGIPARFSGSGSGTDFTLTISSVEPEDFAVYFCQQTRKVPYTFGGGTKVEIKGGSEGKSSGSGSESKSTGGSQVQLQESGPGLVKPSQTLSLTCTVSGNSITSDYAWNWIRQFPGKRLEWIGYISYSGSTTYNPSLKSRVTISRDTSKNQFSLKLSSVTAADTAVYYCATGYYYGSGFWGQGTLVTVSS
notes: scFv (VL-linker-VH) fused to an Fc; also called scFv20; KL2B359_LH; not shown: The hinge and Fc of the scFv-LH-Fc
B7: KL2B30 (Fab) (Fab, V domains shown)
VH: QVQLQESGPGLVKPSETLSLTCTVSGGSISSYYWSWIRQPPGKGLEWIGYIYYSGSTNYNPSLKSRVTISVDTSKNQFSLKLSSVTAADTAVYYCAGTTIFGVVTPNFYYGMDVWGQGTTVTVSS
VL: DIQMTQSPSFLSASVGDRVTITCRASQGISSYLAWYQQKPGKAPKFLIYAASTLQSGVPSRFSGSGSGTEFTLTISSLQPEDFATYYCQQLNSYPLTFGGGTKVEIK

What was measured:
[1] = molecular target: T1, Kallikrein related peptidase 2 (hK2), soluble human protein (human, UniProt P20151 19-261); test: SPR, antibody captured on anti-Fc chip, soluble hK2 injected, 1:1 Langmuir fit
T1 construct: the stated signal peptide (residues 1-18) is left out, the pro-peptide (19-24) is kept; also called KLK2; kallikrein-2
Method: (§1) Affinity of selected hK2 antibodies for soluble hK2 was measured by surface plasmon resonance (SPR). […] Antibodies were captured on a sensor chip coated with an anti-Fc antibody followed by injection of soluble hK2 at various concentrations and specified association and dissociation times. Post dissociation, the surface was regenerated with an appropriate solution to prepare for the next interaction. Kinetic information (on-rate and off-rate constants) were extracted by fitting sensorgrams to the 1:1 Langmuir model. Binding affinity (KD) are reported as the ratio of rate constants (koff/kₒₙ).

[2] = molecular target: T1, Kallikrein related peptidase 2 (hK2), …; test: SPR, sentence summing up Table 14
Method: as §1

T1 sequence (P20151 19-261): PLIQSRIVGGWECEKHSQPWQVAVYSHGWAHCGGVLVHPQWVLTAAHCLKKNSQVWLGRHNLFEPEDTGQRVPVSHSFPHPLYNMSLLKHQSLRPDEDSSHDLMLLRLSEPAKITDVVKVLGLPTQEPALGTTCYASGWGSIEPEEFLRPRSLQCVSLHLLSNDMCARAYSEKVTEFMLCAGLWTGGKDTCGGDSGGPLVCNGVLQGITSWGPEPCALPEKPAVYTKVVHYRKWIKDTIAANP

| Binder | Kd [1] [nM] | Kd [2] [nM] |
| --- | --- | --- |
| B1 | 34.3 |  |
| B2 | 0.04 | < 0.5 |
| B3 | 0.08 | < 0.5 |
| B4 | 0.078 | < 0.5 |
| B5 | 0.053 | < 0.5 |
| B6 | 0.7 to 1 |  |
| B7 | 0.46 | < 0.5 |
